Measurements: the supplement of paper PMC9170038

System: MS2 coat protein
Assay: apparent KD of MS2 coat protein; designed switch direction (-1 OFF switch, 1 ON switch): -1; higher = weaker reporter binding
How it was run: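 Stalled E. coli RNA polymerase transcribed designed RNA switches on Illumina chips, which were then titrated with SNAP-549-labelled MS2 coat protein, doubling from 0.7 or 1.5 nM to 3 µM. Steps lasted from 0.8–1.5 h at the lowest concentration to 10–20 min at the highest. The apparent KD is each design's median over clusters of curve-fitted normalised fluorescence.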

[1] = Eterna round: R95, input ligand: microRNA oligo, concentration not stated
[2] = input ligand: microRNA oligo, concentration not stated
[3] = Eterna round: R95, input ligand: FMN 200 uM
[4] = Eterna round: R95, input ligand: none

| Sequence | apparent KD of MS2 coat protein [1] [nM] | apparent KD of MS2 coat protein (input ligand: FMN 200 uM) [nM] | apparent KD of MS2 coat protein (input ligand: none) [nM] | also measured |
| --- | --- | --- | --- | --- |
| UAAAUAAGUGUGAGGAUAUGCUGGUCCUUGGAUCAGCAGAAGGCACAUGAGGAUCACCCAUGUAAUAUAUUUAU [Mat - Exclusion 4 - JL Mod - D61] (puzzle: Brourd's mod of Exclusion 4) | 68.1 | – | – | – |
| UUUUAACAUGAGGAUCACCCAUGUGAGGAUAUCGAAAUUUAUAUUUAUAUUAAUUUUACGAGAAGGCACAUUUU [JMF 90] (puzzle: Exclusion 1) | 120 | – | – | – |
| AGCGAGGUAGGAUAUACAUGAGGAUCACCCAUGUGCUUGCAUGGCGUGGAACGUCGAGGUAGAAGGGCCAUGCC [EX3 #73] (Eterna round: R97, puzzle: Exclusion 3) | – | 24.5 | 27.8 | – |
| ACUUAUUGAGGAUAUACAUUAAAUUACAUGAGGAUCACCCAUGUUCUUCAAUGUAUAUAUGUAGAAGGCAGAAGAA [JL-ex5-4.27 Malcolm mod] (Eterna round: R97, puzzle: Exclusion 5) | – | 14.9 | 16.4 | – |
| UCGGCGUCAGGAUAUCCAAUAUAUGACAUGAGGAUCACCCAUGUUUCCACUCGUACCUCCGGAGAAGGGACGAAUU [Ex5 #92] (Eterna round: R97, puzzle: Exclusion 5) | – | 33.5 | 32.1 | – |
| CUUAUGUGAGGAUAUCAGUAGUAAUACAAUAGUAUUACUACUGAGAAGGCACAUGAGGAUCACCCAUGUUCCUU [Exclusion 4 - Mod Omei Ex4 344 mod v.1] (puzzle: Exclusion 4) | 27.5 | – | – | – |
| ACAUGAGGAUCACCCAUGUCGAGUACAUGAGGAUCACCCAUGUAGGAUAUGGUUCGCUUUGCGUGCUAGAAGGAUAUGUGAUGG [salish99_ExNG3_r04_513] (Eterna round: R96, puzzle: Exclusion NG 3) | – | 396 | 329 | apparent KD of MS2 coat protein [2]: 217 nM |
| AAAUUGGUAGAGGAUAUCGUACAGGAAACGAUGCGAGAAGGUUGCACAUGAGGAUCACCCAUGUUUAGUUGCGA [EX6 #43] (Eterna round: R97, puzzle: Exclusion 6) | – | 23.3 | 20.8 | – |
| GGCAUGUGAGGAUAUGCGAAGGGAAGGAGAGGGAAAGAGAAGCAGAAGGCACAUGAGGAUCACCCAUGUAAGGG [AK-MS2ROC-r4-exclusion4-8] (Eterna round: R97, puzzle: Exclusion 4) | – | 34.1 | 203 | – |
| AGCCUGGGUUCGCCCAGGUACAUGAGGAUCACCCAUGUCAUGGGUACUUGUGUUGGUAGGCAGUGUGCUCGUCUUAU [Cac Sensor turnoff v1 sub10] (Eterna round: R97, puzzle: Sensor, turn-off variant 1) | – | 719 | 1050 | – |
| UUUUGAUAUGAAGGAUAUACUUAACAUGAGGAUCACCCAUGUGGUGUUGUGAGUGAGUGAGUUUAGUAGAAGGUCAAUUAUUUU [JMF's solution 26] (Eterna round: R96, puzzle: Exclusion NG 2) | – | 470 | 303 | apparent KD of MS2 coat protein [2]: 293 nM |
| ACCUCACAUGAGGAUCACCCAUGUUAGGAUAUCUCGAUGCUCCACGGGCGGUAGCAUCAGAGAAGGAACGUGCU [Vematior] (puzzle: Exclusion 1) | 19 | – | – | – |
| UGCCGUAGAGGAUAUACAUUGAAUAAGAUUCAUGUAAAACUACAUGAGGAUCACCCAUGUAGAAGGCUAUGGCU [JL-ex2-4.37 Eli mod] (Eterna round: R97, puzzle: Exclusion 2) | – | 38.6 | 14.7 | – |
| GCCACGGGAGGAUAUACAUAGGAGUUCUCUUCCUGCUCGAGACAUGAGGAUCACCCAUGUAGAAGGCCCGCUGC [Eternabot (L2) Solution 17] (Eterna round: R97, puzzle: Exclusion 2) | – | 62.2 | 385 | – |
| UUAAUUAAUGUGAGGAUAUCUAGAGCUGCGGCUCUAGAGAAGGCACAUGAGGAUCACCCAUGUCUCAAUUAAUU [BmEx4/2-E3] (Eterna round: R97, puzzle: Brourd's mod of Exclusion 4) | – | 21.6 | 14.7 | – |
| CACUUACAUGAGGAUCACCCAUGUGAGGAUAUCGUGACCAGACGAGAAGUCUAUGUCACGAGAAGGCACGUGGG [Exclusion 1 (Mod 3.1 solution 97 by Eternabot)] (Eterna round: R97, puzzle: Exclusion 1) | – | 20.8 | 811 | – |
| UUUAUUUUGCAAGGAUAUGUUUAAUUUUAGUUUCCUUACACAUGAGGAUCACCCAUGUUAUACUUACAGAAGGUGCAUAAUUUU [JR_ExcNG2_Sub038] (Eterna round: R96, puzzle: Exclusion NG 2) | – | – | – | apparent KD of MS2 coat protein [2]: 132 nM |
| UCUGUUUUGCGAGGAUAUCGACCAUUCCUCUUAACAUGAGGAUCACCCAUGUGCUAAACCUACAACGAGAAGGCGCUCAUACUC [JR_ExcNG2_Sub067] (Eterna round: R96, puzzle: Exclusion NG 2) | – | 60.8 | 51.9 | apparent KD of MS2 coat protein [2]: 50 nM |

| Sequence | apparent KD of MS2 coat protein [1] [nM] | apparent KD of MS2 coat protein (input ligand: FMN 200 uM) [nM] | apparent KD of MS2 coat protein (input ligand: none) [nM] | also measured |
| --- | --- | --- | --- | --- |
| AGAUAGUGCAGAGGAUAUCUUAAUAGAAAGAAUAGAGAAGGCUGACAUGAGGAUCACCCAUGUGAUGUCUUGAGACUACAUGGU [Prohibition 33 - Jieux - Exclusion NG 1] (Eterna round: R96, puzzle: Exclusion NG 1) | – | – | – | apparent KD of MS2 coat protein [2]: 45.9 nM |
| CUUUUGUGAGGAUAUCAGUAGUUAAAUAAUAAAAUUACUACUGAGAAGGCACAUGAGGAUCACCCAUGUUCCUC [Mat - Exclusion 4 - Mod of Salish - D70] (puzzle: Exclusion 4) | 35.5 | – | – | – |
| CUUAGCCUAAAAUCACGCAAGCUUUUUGCUUGUCUUAAGACAUGAGGAUCACCCAUGUCCGGGCUGAACUUAUGUAA [Laantiusan] (puzzle: Sensor v3, turn-off variant 2) | 30.9 | – | – | apparent KD of MS2 coat protein [3]: 22.7 nM; apparent KD of MS2 coat protein [4]: 26.4 nM |
| AUUUAUGUUGAGGAUAUGCUAAAAUGUAUAGUUGCAGAAGGCGACACAUGAGGAUCACCCAUGUUCAUGGAAUU [LRO-Ex6-01] (puzzle: Exclusion 6) | 31.3 | – | – | – |
| CCUGUACAUGAGGAUCACCCAUGUUAGGAUAUUCAGCCCGUCGAGUAUAAGGGUUUAAGAAGAAGGGACGUGGC [Beanused] (puzzle: Exclusion 1) | 13.9 | – | – | – |
| AGCCACAGAGGAUAUACAUACAUCCAGUAGUUAAGAAUACUACAUGAGGAUCACCCAUGUAGAAGGCUGUGGCA [Omei Ex2 BD B6] (Eterna round: R97, puzzle: Exclusion 2) | – | 383 | 84.3 | – |
| CCCUCACAUGAGGAUCACCCAUGUCAGGAUAUCUCACAUCAGCCUUAGGCCGAUGUCUAGAGAAGGGACGUAUC [Latees] (puzzle: Exclusion 1) | 21.3 | – | – | – |
| CAAUGCGGAGGAUAUACAUUUAUGACUGCCACAGUACCGAGACAUGAGGAUCACCCAUGUAGAAGGCCGAUUAA [EX2 B.9] (Eterna round: R97, puzzle: Exclusion 2) | – | 20.4 | 16.7 | – |
| CAAAGAACAUGAGGAUCACCCAUGUGAACCUUCGUUCGACCUCAGGAUAUCCGCCACCGUCCGCAGGAGAAGGGAGGGAAAAUA [Isinar] (Eterna round: R96, puzzle: Exclusion NG 3) | – | 138 | 72.8 | apparent KD of MS2 coat protein [2]: 64.9 nM |
| CUCUAGUCAGGAUAUUAGUUGCCGCCUGGACACAAGCGGCAUGAGAAGGGACUUGAGGAUCACCCAAGUAAAAG [Tibela] (Eterna round: R97, puzzle: Exclusion 4) | – | 2850 | 393 | – |
| GGCAUCGGAGGAUAUAUUUAUGGUGAUACCGGAAGCUUUCUACUUGAGGAUCACCCAAGUAGAAGGCCGAUGCC [jl-ex2.4.85 ViennaUCT mod] (Eterna round: R97, puzzle: Exclusion 2) | – | 39.5 | 13.7 | – |
| ACGCGUUUAGGAUAUACGUGCCUUGACAGUCCUAUUGUGUUACAUGAGGAUCACCCAUGUAGAAGGAGGCCGCG [Eternabot (L1) Solution 79] (Eterna round: R97, puzzle: Exclusion 2) | – | 19.4 | 20.2 | – |
| GUAGAGUAAGGAUAUGAUGAAUAGGAUAGAAUGGUUAGAAAUCAGAAGGUACAUGAGGAUCACCCAUGUAAUGU [Excluse me!!!! 13 - Jieux - Exclusion 4] (puzzle: Exclusion 4) | 21.4 | – | – | – |
| UAUUCUAGAUAGGAUAUACUUUAUUUUUUUUUCGUAGAAGGAUCUACAUGAGGAUCACCCAUGUUAACAGCAGU [JR_E6_Sub009] (puzzle: Exclusion 6) | 50.5 | – | – | – |
| GAGGGACAUGAGGAUCACCCAUGUGAGGAUAUGUGAGAAGGAUUGGAGAGAAUAAGAAACAGAAGGCGCGGGAG [JR_Exclu1_Sub087] (puzzle: Exclusion 1) | 52.5 | – | – | apparent KD of MS2 coat protein [3]: 48.9 nM; apparent KD of MS2 coat protein [4]: 116 nM |
| UAUAAAACAUAGGAUAUCGAAUUAAUCAUUUAACGAGAAGGAUGAACAUGAGGAUCACCCAUGUGGUAUCAUGG [Mat - Exclusion 6 - JL Mod - D9] (puzzle: Exclusion 6) | 61.5 | – | – | apparent KD of MS2 coat protein [3]: 333 nM; apparent KD of MS2 coat protein [4]: 129 nM |
| AGGUAGUCAGGAUAUUAAGAGUAGCGGGAUAACGCUACGAGUGAGAAGGGACAUGAGGAUCACCCAUGUUUUAA [JR_Ex4_Sub071] (Eterna round: R97, puzzle: Exclusion 4) | – | 23.4 | 23.2 | – |
| UAUGGUUAAGUCAGGAUAUACGUACAGAUAUCUGAGUAGAAGGGACAUGAGGAUCACCCAUGUAUGGUAGUGUU [Ex4 #53] (Eterna round: R97, puzzle: Brourd's mod of Exclusion 4) | – | 187 | 64.8 | – |
